This is an account of results in patent US20250145697A1 (WASHINGTON UNIVERSITY, published 2025).

Test [1] addresses T1, recombinant alipidated human ApoE2 (human, UniProt P02649 19-317).
T1 construct: mature; full length recombinant protein made in E. coli or bought
Put plainly: direct ELISA on coated recombinant alipidated ApoE (0.5 ug/ml). The method, boiled down: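 Plates coated overnight with full-length recombinant alipidated ApoE (0.5 μg/ml), from E. coli or a commercial source, were washed, blocked and incubated with anti-ApoE antibody. Binding was detected with goat anti-mouse IgG-HRP to generate dose-response curves.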
Target sequence in this assay (P02649 19-317 R176C): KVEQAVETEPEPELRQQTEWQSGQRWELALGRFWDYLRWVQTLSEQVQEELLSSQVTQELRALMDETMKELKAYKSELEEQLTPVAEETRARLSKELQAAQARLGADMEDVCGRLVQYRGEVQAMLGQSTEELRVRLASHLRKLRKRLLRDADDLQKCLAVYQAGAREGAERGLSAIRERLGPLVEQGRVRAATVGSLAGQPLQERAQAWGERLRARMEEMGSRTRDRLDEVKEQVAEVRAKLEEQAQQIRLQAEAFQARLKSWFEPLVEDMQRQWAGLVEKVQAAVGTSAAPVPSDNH
On the technique in general: In an ELISA, binding on a coated surface is turned into a signal by an enzyme label.

Test [2] concerns the target T1, recombinant alipidated human ApoE2. Put plainly: ELISA, plate coated with 0.5 ug/ml recombinant apoE2, HRP goat anti-mouse detection, OD450. How it is done:
(§1) ELISA plates were coated with 0.5 μg/ml of recombinant apoE2 (square), apoE3 (open circle), or apoE4 (closed circle). Then different concentrations of (A) HJ151, (B) HJ153, (C) HJ154, or (D) HJ156 were loaded on the plates. Horse-radish peroxidase labeled goat anti-mouse secondary antibodies were used to detect binding. […] HJ151 is specific for ApoE4 and HJ156 binds only ApoE3 and ApoE4. FIG. 5E-H are graphs depicting surface plasmon resonance profiles for various antibodies. Anti-ApoE antibodies were serially diluted 3-fold (starting at 100 nM for HJ153 (E), and 1000 nM for HJ151 (F), and […] (G)) for detection of binding to biotinylated-recombinant apoE4 captured on a streptavidin chip. Samples were injected at a flow rate of 30 μl/minute. (H) Apparent KD values of HJ151, HJ153 and HJ156 were calculated based on the SPR experiment.
(§2) ELISA plates were coated with 0.5 μg/ml of recombinant apoE2, apoE3, or apoE4. Then different concentrations of HJ151 (FIG. 5A), HJ153 (FIG. 5B), HJ154 (FIG. 5C), or HJ156 (FIG. 5D) were loaded on the plates. Horse-radish peroxidase labeled goat anti-mouse secondary antibodies were used to detect binding. […] HJ151 is specific for ApoE4 and HJ156 binds only ApoE3 and ApoE4. Surface plasmon resonance profiles for various antibodies was also performed.

The target in test [3] is T2, recombinant alipidated human ApoE3 (human, UniProt P02649 19-317).
T2 construct: mature; full length recombinant protein made in E. coli or bought
Put plainly: ELISA: untreated ApoE3 coated at 0.5 ug/ml, antibody titrated, HRP goat anti-mouse IgG, OD650. How it is done:
The aggregated ApoE was induced by incubating ApoE at 1 mg/ml concentration at 40° C. for 24 hours. The aggregates then were recovered in the pellet fraction following ultracentrifugation at 186,000 g for 1 hour. For ELISA, the untreated ApoE or heat-induced aggregates of ApoE were coated directly to ELISA plates at 0.5 μg/ml overnight at 4° C. After three washes with PBS, the wells were blocked with 1% BSA-PBS for 1 hour at room temperature with shaking at 500 rpm. The blocked wells were washed once with PBS and subsequently loaded with antibodies at serial concentrations (starting at 100 nM with 5-fold dilutions thereafter). Bound antibodies were detected with HRP-labeled goat anti-mouse IgG (Jackson Immunoresearch) and visualized with TMB substrate at OD₆₅₀ (reaction stopped with BioFX stop solution).
Target sequence in this assay (P02649 19-317): as the sequence (P02649 19-317 R176C) above, with C158R counted along it

The next test addresses T3, murine ApoE (mouse, UniProt P08226 19-311).
T3 sequence (looked up): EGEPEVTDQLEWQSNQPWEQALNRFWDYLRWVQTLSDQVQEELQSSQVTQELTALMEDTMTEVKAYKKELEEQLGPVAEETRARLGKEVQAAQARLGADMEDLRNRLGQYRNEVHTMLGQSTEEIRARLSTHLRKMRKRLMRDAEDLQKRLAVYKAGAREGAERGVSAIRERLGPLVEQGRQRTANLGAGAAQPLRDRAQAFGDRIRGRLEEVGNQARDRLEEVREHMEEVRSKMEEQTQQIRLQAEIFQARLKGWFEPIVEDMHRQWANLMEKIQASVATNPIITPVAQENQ
Briefly: not described.

Test [4] concerns the target T4, recombinant alipidated human ApoE4 (human, UniProt P02649 19-317).
T4 construct: mature; full length recombinant protein made in E. coli or bought; biotinylated for SPR; position 112 is counted on the mature protein, not on the precursor entry; also called recApoE; non-lipidated ApoE4
Briefly: SPR, biotinylated recombinant apoE4 captured on a streptavidin chip; column Apparent KD (M). How it is done:
as §1, §2

The target of test [5] is T2, recombinant alipidated human ApoE3. Briefly: ELISA, plate coated with 0.5 ug/ml recombinant apoE3, HRP goat anti-mouse detection, OD450. How it is done:
as §1, §2

In test [6] the target is T5, heat-induced aggregates of ApoE4 (human, UniProt P02649 19-317).
T5 construct: mature; aggregated state of the recombinant protein; also called ApoE4 incubated at 40 C for 24 hr; heat-treated ApoE4
Put plainly: ELISA: ApoE4 incubated at 40 C for 24 h, no denaturant, on the plate, HJ156 titrated, OD650. How it is done: 1: untreated ApoE4. 2: ApoE4 that has been incubated at 40° C. for 24 hr. Supernatant(S) and pellet (P) from ultracentrifugation were resolved on SDS-PAGE and stained by Coomassie blue. (D) Binding of HJ156 to different preparations of ApoE4 loaded at the same concentration on the ELISA plate. Sup of untreated: Supernatant fraction of untreated ApoE4 from ultracentrifugation. Sup/Pel of 24h 40C: Supernatant/pellet fraction of ApoE4 incubated at 40° C. for 24 hour. (E) Binding of HJ156 to untreated and 40° C. incubated ApoE4 with and without denaturation by 1% SDS or 4M guanidine HCl.
In order to test whether HJ151 and HJ156 bind to some form of ApoE in the brain, unfixed frozen brain sections from APPPS1/APOE4 or APPPS1/EKO mice using HJ151 and HJ156 (FIG. 38A). The presence of Aβ plaques was confirmed with Aβ immunostaining using anti-Aβ antibody HJ3.4 on the sections from the same brain. […] Next, the ability of HJ156 to bind to an aggregated form of ApoE induced by incubation at 40° C. was queried. The binding of untreated ApoE to HJ151, HJ153 or HJ156 was compared to the binding of ApoE incubated at 40° C. to HJ151, HJ153 or HJ156. HJ153 bound to untreated ApoE or ApoE incubated at 40° C. similarly while HJ151 and HJ156 preferentially bound to ApoE incubated at 40° C. (FIG. 38B). […] Solubilization of the ApoE aggregates reduced their binding to HJ156. […]

T4 sequence (P02649 19-317 C130R): as the sequence (P02649 19-317 R176C) above, with C112R, C158R counted along it
T5 sequence (P02649 19-317 C130R): as the sequence (P02649 19-317 R176C) above, with C112R, C158R counted along it

B1: HJ154 (antibody, V domains shown)
VH: QVQLQQPGTEFVMSGASVMLSCKASGYIFTNYWLHWVKQRPGHGLEWIGEIDPSDSYSICNDNFKGKSTLTVDKSSSTAYMQLSSLTSEDSAVYYCAGSLGRVGLAYWGQGTLVTVST
VL: QIVLTQSPAIMSASPGEKVTMSCSASSSVSNMYWYQQKPGSSPKSWIYRTSNLASGVPARFSGSGSGTSYSLTISNMEAEDAATYYCQHYQNYPLTFGAGTKLELKR
notes: murine monoclonal antibody from hybridoma; also called HJ154B (biotinylated)
With B1, the EC50 (usually the concentration giving half of the maximal effect) in test [1] was 0.25 nM. The EC50 (read off the curve) (commonly the concentration that produces a half-maximal response) in test [2] was approximately 0.3 nM; in test [3] it was approximately 0.5 nM.

B2: HJ151 (antibody, V domains shown)
VH: QVQLQQSGAELVRPGASVTLSCKASGYTFTDYEMHWVKQTPVHGLEWIGVIDPEKGGTAYNQKFKGKAILTADKSSSTAYMDLRSLTSEDSAVYYCLKDSWGQGTTLTVSS
VL: DVLMTQTPLSLPVSLGDQASISCRSSQTIVHSDGNTYLEWYLQKPGQSPKLLIYKVSNRFSGVPDRFSGSGSGTYFTLKISRVEAEDLGVYYCFQGSHVPCTFGGGTKLEIKR
notes: murine monoclonal antibody from hybridoma; also called HJ151B (biotinylated)
Regarding B2, the binding result in the test with murine ApoE is on record as “no binding”. Besides, the Kd in test [4] amounted to 60.2 nM.

B3: HJ156 (antibody, V domains shown)
VH: QVQLQQSGPELVKPGASVKISCKASGYIFTDYYINWVKRRPGQGLEWIGWIFPGSGVSYYNEQFKGKATLTVDKPSNTAYIFLSRLTSEDSAVYFCARYYSSSPFAYWGQGTLVTVSA
VL: DVLMTQTPLSLPVSLGDQASISCRSSQNIIHSNGNTYLEWFLQRPGQSPELLIYKVSNRFSGVPDRFSGSGSGTDFTLKISRVEAEDLGVYYCFQGSHVPYTFGGGTKLEIKR
notes: murine monoclonal antibody from hybridoma; also called HJ156B (biotinylated)
For the molecule B3, the binding result in the test with murine ApoE was “no binding”. Also, the 50% effective concentration (EC50 (read off the curve)) in test [5] was approximately 0.9 nM; in test [6], approximately 0.1 nM. In addition, in test [4], the Kd amounted to 198 nM.
